B1: TRL848 (antibody, V domains shown)
VH: QVQLLESGGDVVQPGTSLRLSCAASGFSLWTSGMHWVRQAPGKGLEWVAVMSYDETKKYYADSVRGRFSISRDNSRNTLYLQMNSLRVEDTAVYFCAKPRLDYLDYFHAADSWGQGTLVSVSS
VL: DIVLTQPPSVSVAPGQTATITCGGNYIGSKSVNWYQQRPGHAPVLVVYDDSDRPSGIPDRFSGSNSRSTATTATLTISRVEAGDEADYYCQVWETSEDLWVFGGGTKLTVLG
B2: TRL845 (antibody, V domains shown)
VH: QVQLVQSGGDLVQPGGSLRLSCAASGFTFSRYSMNWVRQAPGMGLEWVAYISDTSRTIYYADSVKGRFTISRDNAKNSLYLQMKSLRDEDTAVYYCARDPDTPFVRAFDSWGQGTLVTVSS
VL: DIVLTQSPSFLSASVGDRVTITCRASQLISSYFAWYQQKPGKPPKLLIYAASTLQSGVPSRFSGSGSGTQFSLTISSLQPEDFATYYCQQLNSYPPITFGQGTRLEIKR
B3: TRL849 (antibody, V domains shown)
VH: QVQLVESGPGLVKPSQTLSLTCTVSGGSISNGGYHWSWIRQHPGKGLEWIGNIYYRGSTFYDPSLKSRVTISVDTSKSQFSLKLTSVTAADTAVYYCARMPLANYDLLTGLYIGAFDLWGQGTMVTVSS
VL: DIVLTQSPATLSVSPGERATLSCRASQSVNRNLAWFQQIPGQAPRLLIFDASTRAADIPARFSGGGSGAEFTLTVSSLQPEDFAVYYCQQYDKWPPGFGQGTKVEIKR
B4: TRL842 (antibody, V domains shown)
VH: B1 VH
VL: B1 VL
B5: TRL053 (antibody, V domains shown)
VH: QVQLVQSGAEVRKPGSSVKVSCKVSGGIIRKYAINWVRQAPGQGLEWMGGIIAIFNTANYAQKFQGRVTITADESTSTVYMELSSLRSEDTALYYCARGMNYYSDYFDYWGQGSLVTVSP
VL: EIVLTQSPGTLSLSPGERATLSCRASQSVRSNNLAWYQHKPGQAPRLLIFGASSRATGIPDRFSGSGSGTDFTLTISRLEPEDFAVYYCQQYGSSPALTFGGGTKVEIKR
B6: TRL813 (antibody, V domains shown)
VH: QVQLVESGGGLVQPGGSLRLSCAASGFIFGDFAIHWVRQASGKGLEWVARIRSGLNRFETAYAASVEGRLTISRDDSKSMAYLQMNNVKAEDTAVYLCTYLVGAVGFQHWGQGTLVTVSS
VL: DIVMTQSPSTLSASVGDRVTITCRASQTIYRWLAWYQQKPGKAPKVLIYKASTLESGVPSRFSGSGSGTEFTLAISSLQPDDFATYYCQQYNSFPYRFGQGTKVEIKR
B7: TRL847 (antibody, V domains shown)
VH: QVQLVESGGGLVQPGGSLRLSCVASGFTFSRFSMNWVRQAPGMGLEWVSYISDTGRTIYYADSVKGRFTISRDNDKNTLYLQMKSLRDEDSAFYYCARDPDTPFVRAFDSWGQGVLVTVSS
VL: DIVMTQSPSFLSASVGDRVTITCRTSQVISSYLAWYQQRPGKAPKLLIYAASTLQSGVPSRFSGSGSGTRFSLTISNLQPEDFATYFCQQLTTYPPITFGQGTRLEIKR
B8: TRL841 (antibody, V domains shown)
VH: QVQLVESGGGVVQPGRSLRLSCAASGFTFSSYGIYWVRQAPGKGLEWVAFISYDEINKFYADSVKGRFTISRDNSKNTVFLQMNSLRDEDTAVYYCAKPLRGSYRYFDLWGRGTVVTVSS
VL: DIVMTQPPATLSVSPGERATLSCGASQGLGSNLAWYQQKPGQAPRLLIYAASTRATGITARFSGSGSGTEFTLTINSLQSEDFALYYCQQYTYWPLTFGGGTKVEIKR
B9: TRL809 (antibody, V domains shown)
VH: QVQLLESGGGVVRPGRSLRLACAGSGFTFSAYAMHWVRQAPGKGLEWVAHTSYDGRDSYYVDSVKGRFTISRDDSKNTLYLQMNSLRPEDTAVYYCAKVGPYTGYDDYNYYGMDVWGHGTTVTVSS
VL: DIVLTQSPVSLAVSLGESATVNCKSSQSVLSNSKNLNYLAWYQHKPGQPPKLLIYWASTRESGVPDRFSGSGSGTDFTLTISSLQAEDVAVYYCQQHYSIPLTFGPGTKVDIKR
B10: TRL812 (antibody, V domains shown)
VH: QVQLVQSGGGVVQPGRSLRLSCAASGFNFSSYGMHWVRQAPGKGLEWLSVIWSGGSNKYYADSVKGRFTISRDDSKNTVYLQMNSLRDEDTAVYYCARAHTALTRFRWLDPWGQGILVTVSS
VL: DIVMTQSPATLSVSPGEGATLSCRASQGIGSNLAWYQHKPGQAPRLLIYAASTRATGVPARFSGSGSGTEFTLTISSLQSEDLAVYFCQQYNTWPLTFGGGTKVEIIR
B11: TRL832 (antibody, V domains shown)
VH: QVQLVESGPGLMKPSETLSLTCTVSGGSVSNYYWSWIRQPPGKGLEWIGYVFYSGSSNYNPSLNNPSLKSRVTISIDTSNNQFSLKLSSVTAADTAVYYCARGRVNSGYDWGPNFDSWGQGALVTVSS
VL: DIVLTQAPSVSVSPGQTASITCSGDRLGEKFASWYQQKPGQSPVLVIYEDSKRPSGIPDRFSGSNSGNTATLTISGTQIMDEGDFFCQAWDSSTVVFGGGTKLTVLG
B12: TRL856 (antibody, V domains shown)
VH: QVQLVESGGGLVQPGGSLRLSCAASGFTFSDYWMVWVRQAPGKGLVWVSRISSDGSTTSYADSVKGPFTISRDNAKNTLYLQMNSLRAEDTAVYYCARVATPYYYESGFDYWGQGALVTVSS
VL: DIVLTQSPSVSVAPGQTARITCGGNDIGSKSVHWYQQKPGQAPVLVVFDDRDRPSGIPERFSGSNSGNTATLTISRVEAGDEADYYCQVWDITSDLVVFGGGTKLTVVG

target: T1, hemagglutinin (HA) of influenza B virus B/Florida (Yamagata lineage) (influenza B virus B/Florida/06 …); experiment: not given

Compared with B1, B2 is 8.9-fold lower in Kd: 1.7 nM for the first, 0.19 nM for the second.

target: recombinant HA of influenza B virus B/Wisconsin/10 (Yamagata clade) (influenza B virus B/Wisconsin/10 …); experiment: recombinant HA ELISA (AttoPhos fluorescence, mean of triplicates)

B3 and B1 are the same in “fold reactivity over background” value: 25.6 fold over background for the first, 25.6 fold over background for the second.

Compared with B4, B5 is lower in “fold reactivity over background” value: 25.6 fold over background for the first, 2.8 fold over background for the second.

B6 and B7 are the same in “fold reactivity over background” value: 25.6 fold over background for the first, 25.6 fold over background for the second.

B8 and B2 are the same in “fold reactivity over background” value: 25.6 fold over background for the first, 25.6 fold over background for the second.

B9 and B10 are the same in “fold reactivity over background” value: 25.6 fold over background for the first, 25.6 fold over background for the second.

B11 and B12 are the same in “fold reactivity over background” value: 25.6 fold over background for the first, 25.6 fold over background for the second.

target: T2, hemagglutinin (HA) of influenza B virus B/Malaysia (Victoria lineage) (influenza B virus B/Malaysia/04 …); experiment: as above

B3 and B1 are the same in “fold reactivity over background” value: 25.6 fold over background for the first, 25.6 fold over background for the second.

First: B4
Second: B5
The “fold reactivity over background” value of the first is higher: 25.6 fold over background for the first, 1.6 fold over background for the second.

B6 and B7 are the same in “fold reactivity over background” value: 25.6 fold over background for the first, 25.6 fold over background for the second.

B8 and B2 are the same in “fold reactivity over background” value: 25.6 fold over background for the first, 25.6 fold over background for the second.

B9 and B10 are the same in “fold reactivity over background” value: 25.6 fold over background for the first, 25.6 fold over background for the second.

B11 and B12 are the same in “fold reactivity over background” value: 25.6 fold over background for the first, 25.6 fold over background for the second.

target: recombinant HA of influenza B virus B/Brisbane/08 (Victoria clade) (influenza B virus B/Brisbane/08 …); experiment: as above

B3 and B1 are the same in “fold reactivity over background” value: 25.6 fold over background for the first, 25.6 fold over background for the second.

Compared with B4, B5 is lower in “fold reactivity over background” value: 25.6 fold over background for the first, 1 fold over background for the second.

B6 and B7 are the same in “fold reactivity over background” value: 25.6 fold over background for the first, 25.6 fold over background for the second.

B8 and B2 are the same in “fold reactivity over background” value: 25.6 fold over background for the first, 25.6 fold over background for the second.

B9 and B10 are the same in “fold reactivity over background” value: 25.6 fold over background for the first, 25.6 fold over background for the second.

First: B11
Second: B12
The “fold reactivity over background” value of the first is higher: 25.6 fold over background for the first, 24.1 fold over background for the second.

target: recombinant HA of influenza B virus B/Mass/12 (Yamagata clade) (influenza B virus B/Mass/12 (Yamagata …)); experiment: as above

B3 and B1 are the same in “fold reactivity over background” value: 25.6 fold over background for the first, 25.6 fold over background for the second.

Compared with B4, B5 is lower in “fold reactivity over background” value: 25.6 fold over background for the first, 1 fold over background for the second.

B6 and B7 are the same in “fold reactivity over background” value: 25.6 fold over background for the first, 25.6 fold over background for the second.

B8 and B2 are the same in “fold reactivity over background” value: 25.6 fold over background for the first, 25.6 fold over background for the second.

B9 and B10 are the same in “fold reactivity over background” value: 25.6 fold over background for the first, 25.6 fold over background for the second.

B11 and B12 are the same in “fold reactivity over background” value: 25.6 fold over background for the first, 25.6 fold over background for the second.

target: T1, hemagglutinin (HA) of influenza B virus …; experiment: as above

B3 and B1 are the same in “fold reactivity over background” value: 25.6 fold over background for the first, 25.6 fold over background for the second.

First: B4
Second: B5
The “fold reactivity over background” value of the first is higher: 25.6 fold over background for the first, 1.1 fold over background for the second.

B6 and B7 are the same in “fold reactivity over background” value: 25.6 fold over background for the first, 25.6 fold over background for the second.

B8 and B2 are the same in “fold reactivity over background” value: 25.6 fold over background for the first, 25.6 fold over background for the second.

B9 and B10 are the same in “fold reactivity over background” value: 25.6 fold over background for the first, 25.6 fold over background for the second.

B11 and B12 are the same in “fold reactivity over background” value: 25.6 fold over background for the first, 25.6 fold over background for the second.

target: H2 Japan/305/1957 HA monomer (influenza A virus H2 Japan/305/1957, UniProt P03451 16-525); experiment: kinetic binding to HA monomer (instrument not stated)

In the case of B5, the Kd is reported as 12.3 nM.

In the case of B5, the koff is reported as 6.8e-05 s⁻¹.

B5 was tested, and the kon was 5500 M⁻¹ s⁻¹.

target: T2, hemagglutinin (HA) of influenza B virus …; experiment: ForteBio Octet; antigen on the sensor, varying antibody concentrations

B3 and B1 cannot be ordered by Kd: less than 1 nM for the first, less than 1 nM for the second.

B4 and B7 cannot be ordered by Kd: less than 1 nM for the first, less than 1 nM for the second.

B2 and B9 cannot be ordered by Kd: less than 1 nM for the first, 0.2 nM for the second.

B11 was tested, and the Kd was 0.2 nM.

target: T1, hemagglutinin (HA) of influenza B virus …; experiment: as above

First: B3
Second: B1
The Kd of the first is 20-fold lower: 0.2 nM for the first, 3.9 nM for the second. The first binds more tightly here.

Going from B4 to B7, the Kd falls from 2.5 nM to 0.7 nM (3.6-fold). The second binds more tightly here.

Going from B2 to B9, the Kd falls from 5.2 nM to 0.18 nM (29-fold).

B11 showed a Kd of 1.7 nM.

target: hemagglutinin of influenza A virus A/mallard/MN/AI08-3881/08 (H2), on virus (influenza A virus H2 …); experiment: cell-based or functional assay

In the case of B5, the “IC50 (ug/ml), MDCK monolayer microneutralization assay” value (shortened to “IC50 (ug/ml)”) is reported as 0.3 µg/mL.

target: hemagglutinin of influenza A virus A/CA/04/09 (H1), on virus (influenza A virus H1 A/CA/04/09); experiment: cell-based or functional assay

For B5, the “IC50 (ug/ml)” value was 0.9 µg/mL.

target: hemagglutinin of influenza A virus A/Mallard/MN/182753/98 (H9), on virus (influenza A virus H9 …); experiment: cell-based or functional assay

B5 was tested, and the “IC50 (ug/ml)” value was 0.1 µg/mL.

— patent US20170189529A1 (CONTRAFECT, published 2017)
